Experimental data published in US20220010018A1 (ALBERT EINSTEIN COLLEGE OF MEDICINE, published 2022).
Values belong to the binder of their own block, whether it stands above or below them.

Columns and labels:
Human B7-H3 = target: T1, Human B7-H3 (human, UniProt Q5ZPR3 29-461, limits assumed); assay: Surface Plasmon Resonance
T1 construct: also called human B7-H3 (SPR antigen)
T1 sequence: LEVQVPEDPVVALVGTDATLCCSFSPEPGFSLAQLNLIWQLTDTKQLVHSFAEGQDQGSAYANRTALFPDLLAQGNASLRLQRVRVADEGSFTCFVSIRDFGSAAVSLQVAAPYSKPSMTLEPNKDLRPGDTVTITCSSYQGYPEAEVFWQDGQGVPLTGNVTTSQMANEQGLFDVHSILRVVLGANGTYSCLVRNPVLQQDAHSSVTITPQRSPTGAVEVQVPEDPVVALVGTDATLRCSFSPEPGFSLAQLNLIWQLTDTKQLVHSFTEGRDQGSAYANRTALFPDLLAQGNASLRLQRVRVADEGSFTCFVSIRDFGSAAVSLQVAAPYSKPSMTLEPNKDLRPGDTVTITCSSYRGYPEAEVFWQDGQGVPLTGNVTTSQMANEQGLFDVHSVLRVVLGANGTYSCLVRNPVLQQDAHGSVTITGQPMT

Mouse B7-H3 = target: T2, Mouse B7-H3 (mouse, UniProt Q8VE98 29-244, limits assumed); assay: Surface Plasmon Resonance
T2 construct: The construct used in SPR is not described; also called mouse B7-H3 (SPR antigen)
T2 sequence (looked up): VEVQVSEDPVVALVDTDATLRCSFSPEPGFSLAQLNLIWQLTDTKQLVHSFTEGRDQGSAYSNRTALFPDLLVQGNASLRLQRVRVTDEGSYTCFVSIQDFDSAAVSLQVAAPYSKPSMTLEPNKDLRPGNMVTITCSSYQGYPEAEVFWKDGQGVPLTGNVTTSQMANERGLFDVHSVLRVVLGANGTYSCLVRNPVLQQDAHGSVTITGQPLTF

Kd (Human B7-H3): 8.23 nM | koff (Human B7-H3): 0.00509 s⁻¹ | kon (Human B7-H3): 618000 M⁻¹ s⁻¹ | Kd (Mouse B7-H3): 15.4 nM | koff (Mouse B7-H3): 0.0184 s⁻¹ | kon (Mouse B7-H3): 1.19e+06 M⁻¹ s⁻¹
B1: monoclonal antibody 12B4 (antibody, IgG2b, V domains shown)
VH: QVQLQQPGAELVKPGASVKLSCKASGYTFTSYWMHWVKQRPGQGLEWIGMIHPNSGSTNYNEKFKSKATLTVDKSSSTAYMQLSSLTSEDSAVYYCARYYYGSSYAMDYWGQGTSVTVS
VL: QIVLTQSPAIMSASPGEKVTITCSASSSVSYMHWFQQKPGTSPKLWIYSTSNLASGVPARFSGSGSGTSYSLTISRMEAEDAATYYCQQRSSYPYTFGGGTKLEIKR
notes: Residue limits come from CLM-00006; also called mAb 12B4

Kd (Human B7-H3): 0.3 nM | koff (Human B7-H3): 0.000459 s⁻¹ | kon (Human B7-H3): 1.51e+06 M⁻¹ s⁻¹ | Kd (Mouse B7-H3): 4.01 nM | koff (Mouse B7-H3): 0.00237 s⁻¹ | kon (Mouse B7-H3): 592000 M⁻¹ s⁻¹
B2: monoclonal antibody 8B12 (antibody, IgG3, V domains shown)
VH: QVQLQQPGAELVKPGASVKMSCKASGYTFTSYWITWVKQRPGQGLEWIGDIYPGSGSTNYNEKFKSKATLTVDTSSSTAYMQLSSLTSEDSAVYYCARGGTRFSPFAYWGQGTLVTVSA
VL: DVLMTQTPLSLPVSLGDQASISCRSSQSIVHSNGNTYLEWYLQKPGQSPKLLIYKVSNRFSGVPDRFSGSGSGTDFTLKISRVEAEDLGVYYCFQGSHVPWTFGGGTKLEIKR
notes: Residue limits come from CLM-00006; also called mAb 8B12
